Assay in all cases: fluorescence anisotropy
A general note: In fluorescence polarisation assays a small probe gives low polarisation when free and higher when bound to something large.

Data set [1] addresses T1, Dpo4 (SsoDpo4, Y-family DNA polymerase) (Sulfolobus solfataricus, UniProt Q97W02 1-352).
T1 sequence: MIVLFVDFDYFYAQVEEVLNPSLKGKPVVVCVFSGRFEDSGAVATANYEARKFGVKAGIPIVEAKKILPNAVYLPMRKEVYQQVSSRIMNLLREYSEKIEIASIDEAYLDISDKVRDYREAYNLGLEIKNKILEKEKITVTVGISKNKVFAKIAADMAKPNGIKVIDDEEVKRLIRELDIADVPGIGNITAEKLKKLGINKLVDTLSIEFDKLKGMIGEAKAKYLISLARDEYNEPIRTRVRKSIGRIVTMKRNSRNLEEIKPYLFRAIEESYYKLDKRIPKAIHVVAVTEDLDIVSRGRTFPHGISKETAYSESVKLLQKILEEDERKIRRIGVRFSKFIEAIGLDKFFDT

In data set [2] the target is T2, Dpo1 exo- (SsoDpo1, B-family DNA polymerase) (Sulfolobus solfataricus, UniProt P26811 1-882, D231A;D318A).
T2 sequence: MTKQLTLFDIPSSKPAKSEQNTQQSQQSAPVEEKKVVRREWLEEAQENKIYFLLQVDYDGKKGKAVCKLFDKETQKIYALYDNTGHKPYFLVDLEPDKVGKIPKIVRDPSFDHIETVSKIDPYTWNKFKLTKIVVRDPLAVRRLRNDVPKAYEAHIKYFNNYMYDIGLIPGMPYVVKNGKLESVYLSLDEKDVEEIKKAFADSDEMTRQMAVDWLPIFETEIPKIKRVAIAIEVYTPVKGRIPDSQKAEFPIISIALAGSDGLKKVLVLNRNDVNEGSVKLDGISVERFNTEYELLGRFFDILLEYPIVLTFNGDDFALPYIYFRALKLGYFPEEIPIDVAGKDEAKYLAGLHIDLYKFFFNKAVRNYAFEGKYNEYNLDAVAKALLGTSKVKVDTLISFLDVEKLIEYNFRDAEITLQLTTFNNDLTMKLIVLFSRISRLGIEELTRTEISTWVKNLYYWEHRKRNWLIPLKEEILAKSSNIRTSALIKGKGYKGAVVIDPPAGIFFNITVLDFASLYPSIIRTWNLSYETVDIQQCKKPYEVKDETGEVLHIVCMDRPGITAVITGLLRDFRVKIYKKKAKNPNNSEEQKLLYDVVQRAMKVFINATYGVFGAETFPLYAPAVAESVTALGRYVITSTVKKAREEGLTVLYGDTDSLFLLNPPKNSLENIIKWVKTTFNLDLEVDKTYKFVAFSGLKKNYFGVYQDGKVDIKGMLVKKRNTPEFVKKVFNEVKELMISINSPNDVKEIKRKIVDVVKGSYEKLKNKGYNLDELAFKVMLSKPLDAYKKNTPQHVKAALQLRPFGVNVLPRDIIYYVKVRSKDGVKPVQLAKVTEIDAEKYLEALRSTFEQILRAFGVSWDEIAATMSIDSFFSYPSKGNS

Data set [3] deals with T2, Dpo1 exo- (SsoDpo1, B-family DNA …). This is another data set of the same source.
For data set [4], the target named is T1, Dpo4 (SsoDpo4, Y-family DNA polymerase). This is another data set of the same source.
Data set [5] deals with T2, Dpo1 exo- (SsoDpo1, B-family DNA …). The source holds these as a separate data set.
The target of data set [6] is T1, Dpo4 (SsoDpo4, Y-family DNA polymerase). This is another data set of the same source.
In data set [7] the target is T2, Dpo1 exo- (SsoDpo1, B-family DNA …). The source holds these as a separate data set.
The target in data set [8] is T1, Dpo4 (SsoDpo4, Y-family DNA polymerase). The source holds these as a separate data set.

The record followed here is publication PMC3477848 (Biochemistry, 2012).

Like-named read-outs stand apart in the source and are kept apart here.

B1: 37-nt hairpin primer-template, 5'-Cy3 (structured_DNA)
DNA: TTTTTTTTTTCCCGGGCCGGCGTTTCGCCGGCCCGGG
As for B1, the Kd was determined as 444 ± 115 nM in data set [1]; 208 ± 22 nM in data set [2]; 144 ± 3 nM in data set [3]; 214 ± 3 nM in data set [4]; 170 ± 23 nM in data set [5]; 176 ± 10 nM in data set [6]. In addition, the dissociation constant Kd in data set [7] amounted to 97 ± 3 nM; in data set [8], 140 ± 66 nM.

In general, Kd refers to a measure of binding affinity in units of concentration. The low end stands for tighter binding, the high end for weaker binding.
